{"source": "paper PMC2705707", "about": "(Journal of Structural and Functional Genomics, 2009)", "proteins": {"B1": {"name": "YidH (natural protein, E. coli, UniProt P0ADM0 1-115, looked up)", "chain": "MKISRLGEAPDYRFSLANERTFLAWIRTALGFLAAGVGLDQLAPDFATPVIRELLALLLCLFSGGLAMYGYLRWLRNEKAMRLKEDLPYTNSLLIISLILMVVAVIVMGLVLYAG"}, "B2": {"name": "YgaP (natural protein, E. coli, UniProt P55734 1-174, looked up)", "chain": "MALTTISPHDAQELIARGAKLIDIRDADEYLREHIPEADLAPLSVLEQSGLPAKLRHEQIIFHCQAGKRTSNNADKLAAIAAPAEIFLLEDGIDGWKKAGLPVAVNKSQPLPLMRQVQIAAGGLILIGVVLGYTVNSGFFLLSGFVGAGLLFAGISGFCGMARLLDKMPWNQRA"}}, "biological_target": "the molecule itself", "test": "SEC + other: SDS-PAGE"}
{"protein": "B1", "values": [{"measurement": "stoichiometry N", "result": 2}]}
{"protein": "B2", "values": [{"measurement": "stoichiometry N", "result": 2}]}
